{
  "source": "patent US10227575B2",
  "about": "“Multi-domain enzymes having cutinase activity, compositions comprising same and uses thereof” (OZYMES, priority 2015, dated 2019)",
  "molecules": {"B1": {"name": "KrCUT: mature Kineococcus radiotolerans cutinase, amino acids 34-294 of SEQ ID NO: 1; SEQ ID NO: 6 (protein)", "chain": "ATCSDVDVVFARGTGETPGLGVVGGPFVRSLTGELSDRTVTSHAVDYAASSSQASAGPGATAMSAHVREVAAACPSTRFVLGGYSQGATVTDIALGIRTGTTTGTPVPAELAGRVAAVVVFGNPLGLSGRTIATASSTYGPKSKDYCNSSDSVCGSAPKTGTGGHLSYASNGSTTDGARFAAGLVRAAGTPTTPTPTPTPTPVPTTCVRDSTRDHVAADRAVSLYGRAYARGSRDSLGATSSYNVVSLQQVEGGWRLVTAC", "modifications": "Kineococcus radiotolerans; (1)..(261) KrCUT (lacking residues 1-33 of ssKrCUT)"}},
  "key": {"[1]": {"assay": "Esterase assay, specific activity of KrCUT versus YebF-KrCUT", "type": "biochemical", "conditions": "pNP-palmitate as substrate", "experimental": "(§1) Esterase activity was determined by monitoring the formation of pNP at 410 nm from various pNP-esters using a Beckman UV spectrophotometer (model DU 640) (21). Substrates were dissolved in isopropanol and were added to 50 mM sodium phosphate buffer pH 8.0 to give 10% (v/v) total isopropanol concentration in a 1 mL reaction volume. pNP-butyrate was used at a final concentration of 1.2 mM. For pNP-caprylate, myristate and palmitate, the final concentration ranged from 0.1 to 0.5 mM. The reaction (1 mL) was started by adding an appropriate amount of enzyme. One enzyme unit (U) is defined as the amount of enzyme that produced 1 μmol of product (pNP) per min; specific activity is expressed as U/mg protein. A molar extinction coefficient of 15 mM^−1 cm^−1 for pNP is used for calculating enzyme activity.\nThe presence of YebF appeared to greatly decrease the activity of the fusion proteins. […] The results are shown in FIG. 6, in which fractions C1-C10 correspond to the first peak (KrCUT) and fractions D9-D11 correspond to the second peak (YebF-KrCUT)."}, "[2]": {"assay": "Potential inhibitors of cutinase activity", "type": "biochemical", "experimental": "as §1\nKrCUT cutinase activity was assayed as described in Example 1, section 1.6 in the presence of various chemicals using p-NP palmitate as substrate under standard assay conditions. […] Cu^2+ at 1.0 mM had little effect. The enzyme was not affected by the metal-chelating agent EDTA even at 10 mM. The anionic surfactant SDS was a strong inhibitor of cutinase even at 0.01% retaining only 28% activity. […] Dimethylsulfoxide (at 30%) and dimethylformide (at 5%) inhibited cutinase activity by about 70%."}, "[3]": {"assay": "Hydrolysis of cutin, GC-MS of released monomers", "type": "biochemical, Apple (Golden Delicious)", "experimental": "Apple (Golden Delicious) cutin was used as substrate. The outer layer of the fruit was peeled by hand and cutin preparation carried out as described by Gerard et al. (1993) with minor modifications. Discs of apple peels were incubated at 50° C. in oxalate buffer [(oxalic acid (4 g/L)/ammonium oxalate (16 g/L)] for 16 h and then collected and washed several times with deionized water. The sample was treated with 0.5% Novozymes Aspergillus niger pectinase (Sigma P2736) in 100 mM phosphate citrate buffer pH 5.8 for 16 h. The cutin sheets were washed with ethanol, followed by several washes with chloroform, and then incubated in chloroform at 45° C. for 16 h, and finally dried to constant weight. The cutin was ground in a Cyclone sample Mill (UDY Corporation, Fort Collings, Colo., USA).\nA typical reaction mixture (2 mL) contained 20 mg cutin and an appropriate amount of cutinase in 25 mM sodium phosphate buffer, pH 8.0. The mixture was incubated in a water bath at 37° C. with gentle shaking for 16 h. Assays were conducted in duplicate. At the end of the reaction, the remaining cutin was removed by centrifugation (10 min, 5000 rpm). The resulting solution was acidified with hydrochloric acid and cutin monomers extracted with chloroform/methanol, according to Bligh and Dyer (1959). The organic phase was removed by evaporation under an air stream and the dried residue dissolved in 1 mL chloroform/methanol (85:15) and used for further derivatization. Trimethylsilylation of cutin monomers was performed with BSTFA [N, O-bis(trimethylsilyl) trifluoroactamide] and TMCS (trimethylchlorosilane) provided by the supplier in the ratio 99:1 (Supelco, Bellefonte, USA) at 70° C. for 3 h, and the composition of the mixture determined by GC-MS.\nCutin monomers were identified by GC-MS on an Agilent 6890 gas chromatography system coupled to a 5973 quadrupole mass spectrometer. 1 μL was injected under splitless condition on a 50 m×0.20 mm×0.33 μm DB-5MS capillary column (Agilent). The oven temperature program was 70° C. (for 1.39 min) to 136° C. at 64° C./min and to 290° C. at 2.5° C./min (for 55 min). Helium was used as carrier gas. The temperature at the injection port was 250° C. The detector was run in El mode at 70 eV. Masses were scanned between 50 and 650 amu.\nComponents were identified by comparison of the MS spectra of their trimethylsilyl (TMSi) derivatives, as methyl ester TMSi ether or as TMSi ester TMSi ether, with published spectra (Kallio et al., 2006; Philipps et al., 2002).\nTo measure cutinase activity, assays of cutin hydrolysis were performed as described in Example 1, section 1.7 at two different enzyme concentrations. Characteristic cutin components, C16 and C18 hydroxyl fatty acids, were identified by GC-MS analysis."}, "[4]": {"assay": "Adsorption assay on PHB granules (Langmuir isotherm)", "type": "binding", "experimental": "Purified KrCUT of concentrations ranging from 0.16 to 3.2 mg/mL were mixed with 25 mg PHB in 50 mM sodium phosphate (pH 8.0) in a total volume of 1 mL and mixed by gently shaking for 3 h. The PHB polymer was removed by centrifugation and the concentration of protein in the supernatant was determined by the BCA method. The concentration of bound protein at a particular concentration of cutinase was calculated as the difference between a control without added PHB and free cutinase after incubation with PHB.\nAdsorption assays were carried out following procedures of Kasuya et al. (1999). Purified KrCUT and KrCUT189 at concentrations ranging from 0.16 to 3.2 mg/mL were added to a suspension of 25 mg PHB in 50 mM sodium phosphate (pH 8.0) in a total volume 1 mL. The mixture was incubated at room temperature with gentle shaking for at least 3 h. The PHB polymer was removed by centrifugation and the concentration of protein in the supernatant was determined by the BCA method. The concentration of bound protein at a particular concentration of cutinase was calculated as the difference between a control without added PHB and free cutinase after incubation with PHB. An isotherm of [Bound](mg/mg PHB) vs [Free] (mM) was generated and binding parameters were determined by non-linear regression using the Langmuir equation:\n[formula] where [E]=Ead+[E]e, is the concentration of the protein added; Emax is the maximum amount of protein adsorbed on the polyester granules, and K is the adsorption equilibrium constant of the protein."}, "[5]": {"assay": "KrCUT activity in the presence of chelating agents", "type": "biochemical"}},
  "data": [
    {"molecule": "B1", "values": [
      {"measurement": "specific activity", "setting": "[1]", "value": 162, "unit": "U/mg"},
      {"measurement": "effect of para-chloromercuribenzoate", "setting": "[2]; 0.01 to 1 mM", "value": "no discernible effect"},
      {"measurement": "effect of 2-propanol", "setting": "[2]; 2-propanol exceeding 15%", "value": "strongly reduces enzyme activity"},
      {"measurement": "effect of Cu2+", "setting": "[2]; Cu2+ 1.0 mM", "value": "little effect"},
      {"measurement": "effect of EDTA", "setting": "[2]; EDTA 10 mM", "value": "not affected"},
      {"measurement": "enzyme inhibition by Fe2+", "setting": "[2]; Fe2+ 1 mM", "value": 50, "unit": "%"},
      {"measurement": "enzyme inhibition by Mg2+", "setting": "[2]; Mg2+ 10 mM", "value": 19, "unit": "%"},
      {"measurement": "activity retained with SDS", "setting": "[2]; SDS 0.01%", "value": 28, "unit": "%"},
      {"measurement": "effect of SDS", "setting": "[2]; SDS 0.1%", "value": "complete loss of activity"},
      {"measurement": "effect of alcohols", "setting": "[2]; concentration above 15-20%", "value": "strong inhibiting effect"},
      {"measurement": "inhibition by dimethylformide", "setting": "[2]; dimethylformide 5%", "value": "about 70%"},
      {"measurement": "inhibition by dimethylsulfoxide", "setting": "[2]; dimethylsulfoxide 30%", "value": "about 70%"},
      {"measurement": "loss of activity by zinc ion", "setting": "[2]; zinc ion 0.1 mM", "value": "over 90%"},
      {"measurement": "effect of zinc ion on cutinase activity", "setting": "[2]; zinc ion 1 mM", "value": "complete loss of activity"},
      {"measurement": "10,16-dihydroxyhexadecanoic acid released, Area (%)", "setting": "[3]; 20 Units cutinase", "value": "39.25 ± 2.5", "unit": "%"},
      {"measurement": "18-hydroxy-octadeca-9,12-dienoic acid released, Area (%)", "setting": "[3]; 20 Units cutinase", "value": "18.0 ± 6.3", "unit": "%"},
      {"measurement": "9,10,18-trihydroxyoctadec-9 enoic acid released, Area (%)", "setting": "[3]; 200 Units cutinase", "value": "6.25 ± 0.40", "unit": "%"},
      {"measurement": "9,10,18-trihydroxyoctadec-10,12-dienoic acid released, Area (%)", "setting": "[3]; 200 Units cutinase", "value": "13.25 ± 0.40", "unit": "%"},
      {"measurement": "9,10,18-trihydroxyoctadecanoic acid released, Area (%)", "setting": "[3]; 200 Units cutinase", "value": "25.55 ± 0.10", "unit": "%"},
      {"measurement": "9,16-dihydroxyhexadecanoic acid released, Area (%)", "setting": "[3]; 200 Units cutinase", "value": "3.81 ± 0.62", "unit": "%"},
      {"measurement": "10,16-dihydroxyhexadecanoic acid released, Area (%)", "setting": "[3]; 200 Units cutinase", "value": "27.74 ± 0.41", "unit": "%"},
      {"measurement": "18-hydroxy-octadeca-9,12-dienoic acid released, Area (%)", "setting": "[3]; 200 Units cutinase", "value": "2.22 ± 0.13", "unit": "%"},
      {"measurement": "binding to PHB", "setting": "[4]", "value": "binds efficiently"},
      {"measurement": "degradation of PHB", "setting": "[4]", "value": "did not degrade"},
      {"measurement": "adsorption equilibrium constant (K)", "setting": "[4]; 25° C., pH 8.0", "value": "0.12±0.03", "unit": "ml/mg PHB"},
      {"measurement": "maximum amount of cutinase absorbed on the PHB granules (Emax)", "setting": "[4]; 25° C., pH 8.0", "value": "23.68 ± 0.03", "unit": "µg/mg"},
      {"measurement": "effect of EDTA on KrCUT activity", "setting": "[5]; EDTA 10% w/v", "value": "does not inhibit"},
      {"measurement": "activity retained in the presence of GLDA", "setting": "[5]; GLDA 5% w/v", "value": 100, "unit": "%"}
    ]}
  ]
}
